# Patent US20190041402A1 (GOVERNING COUNCIL OF THE UNIVERSITY OF TORONTO, published 2019)
# T1: human FGFR1c ligand-binding domain (human, UniProt P11362 142-365)
# T1 construct: range 142-365; also called FGFR1c alone
# T1 sequence (looked up): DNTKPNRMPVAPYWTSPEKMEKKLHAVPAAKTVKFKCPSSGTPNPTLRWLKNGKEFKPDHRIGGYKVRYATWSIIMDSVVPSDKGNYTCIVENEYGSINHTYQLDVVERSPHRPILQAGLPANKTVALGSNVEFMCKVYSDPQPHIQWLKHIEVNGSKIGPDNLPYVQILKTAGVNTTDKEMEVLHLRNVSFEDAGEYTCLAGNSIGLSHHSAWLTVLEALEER
# T2: rat αKlotho (endogenous) (rat, UniProt Q9Z2Y9 35-983)
# T2 sequence (looked up): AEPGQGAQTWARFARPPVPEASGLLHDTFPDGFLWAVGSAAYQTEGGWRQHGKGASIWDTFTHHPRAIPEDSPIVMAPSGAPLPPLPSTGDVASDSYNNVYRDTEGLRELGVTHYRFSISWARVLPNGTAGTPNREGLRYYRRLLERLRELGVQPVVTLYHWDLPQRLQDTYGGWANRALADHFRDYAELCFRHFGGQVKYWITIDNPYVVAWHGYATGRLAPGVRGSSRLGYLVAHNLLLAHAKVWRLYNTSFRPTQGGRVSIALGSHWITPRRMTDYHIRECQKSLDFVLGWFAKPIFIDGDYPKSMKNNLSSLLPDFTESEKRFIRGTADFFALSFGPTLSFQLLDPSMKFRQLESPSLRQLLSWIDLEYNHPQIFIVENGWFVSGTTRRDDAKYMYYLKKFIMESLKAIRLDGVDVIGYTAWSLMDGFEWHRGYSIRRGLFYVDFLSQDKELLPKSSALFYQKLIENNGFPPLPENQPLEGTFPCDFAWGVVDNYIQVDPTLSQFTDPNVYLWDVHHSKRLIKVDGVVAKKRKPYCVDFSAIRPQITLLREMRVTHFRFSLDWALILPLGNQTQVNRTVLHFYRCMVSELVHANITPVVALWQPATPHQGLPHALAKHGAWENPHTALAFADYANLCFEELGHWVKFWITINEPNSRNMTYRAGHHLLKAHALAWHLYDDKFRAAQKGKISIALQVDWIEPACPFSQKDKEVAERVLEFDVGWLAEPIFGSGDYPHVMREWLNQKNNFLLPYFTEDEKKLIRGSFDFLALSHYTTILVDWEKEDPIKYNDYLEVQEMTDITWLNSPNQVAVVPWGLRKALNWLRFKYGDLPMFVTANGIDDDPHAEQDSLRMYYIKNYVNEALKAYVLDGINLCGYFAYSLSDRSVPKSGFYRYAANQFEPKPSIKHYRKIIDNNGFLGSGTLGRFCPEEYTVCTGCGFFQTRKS
# B1: sb106 Fab (Fab, V domains shown)
# VH: EVQLVESGGGLVQPGGSLRLSCAASGFNISYYSIHWVRQAPGKGLEWVAYISPSYGYTSYADSVKGRFTISADTSKNTAYLQMNSLRAEDTAVYYCARYYVYASHGWAGYGMDYWGQGTLVTVSS
# VL: DIQMTQSPSSLSASVGDRVTITCRASQSVSSAVAWYQQKPGKAPKLLIYSASSLYSGVPSRFSGSRSGTDFTLTISSLQPEDFATYYCQQAGYSPITFGQGTKVEIKR
# notes: also called Fsb106; clone 48
# Columns and labels:
# [1] = molecular target: T1, human FGFR1c ligand-binding domain; assay: Fab-phage ELISA, immobilised antigen
# [2] = molecular target: T2, rat αKlotho (endogenous); assay: immunoprecipitation-immunoblot, serum and urine; native soluble αKlotho in rat serum; immunoprecipitation-immunoblot
# Protocol: The ELISA was performed as instructed by the manufacturer (Immuno-Biological Laboratory, Japan). For the IP-IB assay, typically 50 μl of serum or urine were diluted with KRH buffer [25 mM Hepes-NaOH (pH 7.4), 120 mM NaCl, 5 mM KCl, 1.2 mM MgSO4, 1.3 mM CaCl2, 1.3 mM KH2PO4] to a final volume of 0.5 ml incubated with 2 μg of sb106-Fab overnight at 4° C. in low binding, siliconized tubes. Sepharose beads (50 μL) conjugated with anti-FLAG antibody (50% v/v) prewashed 3× with KRH buffer were added, incubated (4° C.×2 h), and washed (KRH-500 μl per tube ×3; 22° C.). The immune complex was eluted with 2×SDS sample loading buffer (50 μl; 100° C.×3 min; 4° C.×3 min; spun), and fractionated by SDS-PAGE, transferred to nitrocellulose membranes and blotted with anti-KL1 antibody (KM2076, 1:4000 or 3.1 mg/mL, 1:10000 dilution) and diluent (Dako#S3022, Carpinteria, Calif., USA) overnight (4° C., rocker). The membrane was washed (×3, Tris-buffered saline with 0.1% Tween; TBS-T), exposed to anti-rat IgG2A (LSBio cat#LS-059051, 1:20000 in 5% milk/2% goat serum/TBS-T×1 h) and washed (×3 TBS-T). For chemiluminescence, the membrane was covered with SuperSignal West Femto Maximum Sensitivity substrate (Thermo Scientific, Rockford, Ill., USA) and exposed for 30-90 s. The 130-kD bands were scanned, and density was compared with internal control samples of know amount of Klotho using Adobe Photoshop CS4.
binder,measurement,setting,value
B1,binding result,[1],no binding
same,binding result,[2],binds
